What all share (assay type): physicochemical
The nature of data set [1]: Fibrillation (thioflavin T), shaking at 37 °C. As to conditions: 60 μM in 100 mM sodium phosphate, pH 8.0, 37 °C; for Fibrillation lag time: shaking 960 rpm, 1 μM ThT (444/485 nm), lag time = x-intercept, two HPLC fractions, each in triplicate or quadruplicate, two days; for fibrillation: vigorous shaking, ThT. As to the method:
Each insulin lispro variant was subjected to continuous, vigorous shaking at 37 °C to assess its stability against physical denaturation; fibrillation was monitored with the dye thioflavin T, (Fig. 4A).
Figure 4 Fibrillation of lispro variants.A, lispro variants (60 μM in 100 mM phosphate buffer, pH 8.0) were incubated at 37 °C with vigorous shaking; fibril formation was monitored by ThT fluorescence. Fibrillation runs were performed on two separate HPLC fractions, each in triplicate or quadruplicate, on two separate days. B–E, TEM images of lispro (B), KP-4R-F (C), KP-4S-F (D), and KP-44-diF (E) aggregates. F, ANS emission spectra of lispro variants (1 μM lispro variant labeled with 5 μM ANS in 100 mM phosphate buffer, pH 8.0). The data presented here indicate the mean ± SD for each variant from measurements of three separate HPLC fractions. 44-diF, 4,4-difluoroproline; 4R-F, 4R-fluoroproline; 4S-F, 4S-fluoroproline; ThT, thioflavin T.
Lispro samples (60 μM in 100 mM sodium phosphate buffer, pH 8.0) were centrifuged (22,000g, 1 h, 4 °C); 1 μM thioflavin T was then added. Each lispro variant was shaken continuously in a 96-well, black, clear bottom plate at 37 °C, and fluorescence (444 nm excitation, 485 nm emission) was monitored over time. Fibrillation runs were performed on two separate HPLC fractions, each in triplicate or quadruplicate, on two separate days. The growth phase of each replicate was fit to a linear function; lag times were reported as the x-intercept. […]
Lispro samples (60 µM in 100 mM sodium phosphate, pH 8.0) were centrifuged at 22,000 g for 1 h at 4°C, before 1 µM thioflavin T (ThT) was added. Each lispro (200 µL) was added to a 96 -well, black, clear bottom plate (Greiner Bio -One) and sealed. Samples were shaken continuously at 960 rpm on a Varioskan multimode plate reader at 37°C, and fluorescence readings were recorded every 15 min (444 nm excitation, 485 nm em ission). Fibrillation runs were performed on at least two separate HPLC fractions, each in triplicate or quadruplicate, and on two different days. The growth phase of each fibrillation replicate was fit to a linear function; f ibrillation lag times were reported as the x-intercept of this fit. Fibril samples were stored at 4°C until analysis by transmission electron microscopy (TEM).
Transmission electron microscopy: […]

Data set [2] has as its system zinc- and resorcinol-bound hexamer. As to the kind of experiment: Hexamer dissociation kinetics by CD after dilution. To be noted: 250 μM ZnCl2, 25 mM resorcinol; for Hexamer dissociation t1/2: 600 μM insulin or lispro, 25 mM tris pH 8.0, 150-fold dilution, 25 °C, ellipticity at 222 nm over 120 s, at least two separate HPLC fractions, different days. As for the experimental part: We measured the half-life (t1/2) for dissociation of the hexamer form of each lispro variant by monitoring the change in negative ellipticity at 222 nm over time after dilution (Figs. 3A, S4, and S5). Insulin and lispro variants were formulated to mimic the pharmaceutical formulation (600 μM insulin, 25 mM resorcinol, 250 μM ZnCl2); resorcinol was used as the phenolic ligand to slow dissociation ([30]). […] Monitoring dissociation processes faster than that of lispro is limited by the mixing time of this experiment, though comparisons to human insulin can still be made.
Samples were dialyzed overnight against 28.6 mM tris buffer, pH 8.0, then formulated as 600 μM insulin or lispro, 250 μM ZnCl2, 25 mM resorcinol, 25 mM tris, pH 8.0. A 20 μl aliquot of the formulation solution was injected into a stirred buffer solution containing 2.98 ml of 25 mM tris, pH 8.0 (150-fold dilution) at 25 °C. Ellipticity was monitored over 120 s at 222 nm. A typical run led to a rapid drop in CD signal as mixing occurred (∼5 s), then a gradual rise to an ellipticity representative of an insulin monomer. Data preceding the timepoint with the greatest negative ellipticity represented the mixing time and were omitted from further analysis. […] Dissociation data were fit to a mono-exponential function using Scipy (Python). The data presented here are from at least two separate HPLC fractions, measured on different days. […]
Circular dichroism spectroscopy: […]
Kinetic measurements: Insulin or lispro samples in 100 mM sodium phosphate buffer pH 8.0 were dialyzed overnight against 28.6 mM tris buffer, pH 8.0 (Slide -A-Lyzer dialysis cassettes, 3.5 kDa MWCO, ThermoFisher). Samples were formulated as follows: 600 µM lispro, 250 µM ZnCl 2, 25 mM resorcinol, 25 mM tris buffer, pH 8. A 20 µL volume of the insulin formulation was injected into a stirred buffer solution containing 2.98 mL of 25 mM tris, pH 8.0 in a 10 mm quartz cuvette (150-fold dilution). Ellipticity was m onitored at 222 nm over 120 s (1 s kinetic interval, 0.5 s time constant) at 25°C. A typical run led to a rapid drop in CD signal as mixing occurred (~5 s), then a gradual rise to an equilibrium ellipticity representative of an insulin monomer. Data preceding […]
omitted from further analysis. Runs were discarded if the maximum change in mean residue […]
remaining data were fit to a mono -exponential function using Scipy (Python); data presented here are from at least two separate HPLC fractions, measured on two different days.
An equilibrium spectrum for each protein was obtained after dilution; all spectra were indicative of an insulin monomer (Figure S3). The CD spectrum of lispro under pre -dilution formulation conditions was obtained using a 0.1 mm quartz cuvette. […]

Data set [3] can be described thus: Far-UV circular dichroism (secondary structure). As to conditions: for Ellipticity ratio (208/222 nm): 60 µM insulin or lispro variant, 100 mM phosphate, pH 8.0. As for the experimental part: Figure 2 Biological activity and CD spectroscopy of lispro variants.A, lispros were injected subcutaneously into diabetic mice, and blood glucose was measured over time after injection. The data presented here represent the mean ± SD of 3 to 6 biological replicates. B–E, far-UV circular dichroism spectra (60 μM lispro in […] phosphate buffer, pH 8.0). […] 4R-F, 4R-fluoroproline; 4S-F, 4S-fluoroproline.
The secondary structure of each insulin lispro variant was probed by circular dichroism spectroscopy. […] All lispro samples were further analyzed by analytical ultracentrifugation (Fig. S3). To determine the dissociation constant of each variant, we fit the data to a reversible monomer-dimer equilibrium ([29]). […]
Circular dichroism spectroscopy:
Equilibrium measurements: The circular dichroism spectra of insulin or lispro samples (60 µM in
100 mM sodium phosphate, pH 8.0) were measured at 25°C in 1 mm quartz cuvettes using a step
size of 0.5 nm and averaging time of 1 s on an Aviv Model 430 Circular Dichroism
Spectrophotom eter. A reference buffer spectrum was subtracted from each sample spectrum. […]
Analytical ultracentrifugation: […]

Entries after “also recorded” stand apart in the source; their conditions may differ.

In data set [1], “insulin lispro: fast-acting insulin with inversion of the residues ProB28 and LysB29; Humalog, Eli Lilly [reference compound]” gave a Fibrillation lag time of 10.9 ± 2.2 h. Moreover, the “hexamer dissociation” value in data set [2] (600 μM protein, 150-fold dilution, pH 8.0, 25 °C, CD 222 nm) is recorded as “dissociated significantly more rapidly than human insulin”. In data set [3] (25 °C), the “Ellipticity ratio (208/222 nm)” value came to 1.63 ± 0.07. Also, the “oligomeric state at 60 μM” value in data set [3] (60 μM, statement in discussion of CD spectra) was “monomeric”. In addition, the “CD spectrum” value in data set [3] (far-UV CD, 60 μM lispro in 10 mM phosphate buffer, pH 8.0 (Fig. 2; SI: 100 mM sodium phosphate), 25 °C) was “increased negative ellipticity at 208 nm and decreased negative ellipticity at 222 nm”.
In the case of “KP-4S-F: insulin lispro with ProB29 replaced by 4S-fluoroproline”, in data set [1], the Fibrillation lag time is on record as 17.9 ± 0.8 h and the “fibrillation” value is “stabilized against fibril formation; also recorded: extended lag time to fibril formation”. Besides, the “Hexamer dissociation t1/2” value in data set [2] is 11.2 ± 3.3 s. Besides, in data set [3] (25 °C), the “Ellipticity ratio (208/222 nm)” value was 1.59 ± 0.06.
The matching figures for “KP-4R-F: insulin lispro with ProB29 replaced by 4R-fluoroproline”: 10.3 ± 2.4 h, “did not significantly change the fibrillation lag time”, 10.2 ± 1.6 s and 1.62 ± 0.06.
The matching figures for “KP-44-diF: insulin lispro with ProB29 replaced by 4,4-difluoroproline”: 9.0 ± 1.3 h, “did not significantly change the fibrillation lag time”, 9.9 ± 2.9 s and 1.61 ± 0.05.

These data come from PMC11154709, “4S-fluorination of ProB29 in insulin lispro slows fibril formation” (The Journal of Biological Chemistry, 2024).
